Test results reported in patent US20230048633A1 (SHATTUCK LABS, published 2023).

T1: m4-1BB expressed on CHO-K1 cells (CHO-K1/m4-1BB+ (C20)) (mouse, UniProt P20334 24-256)
T1 construct: whole, on cells; also called CHO-K1/4-1BB cells; 4-1BB expressed by the CHO-K1/4-1BB cells
T1 sequence (looked up): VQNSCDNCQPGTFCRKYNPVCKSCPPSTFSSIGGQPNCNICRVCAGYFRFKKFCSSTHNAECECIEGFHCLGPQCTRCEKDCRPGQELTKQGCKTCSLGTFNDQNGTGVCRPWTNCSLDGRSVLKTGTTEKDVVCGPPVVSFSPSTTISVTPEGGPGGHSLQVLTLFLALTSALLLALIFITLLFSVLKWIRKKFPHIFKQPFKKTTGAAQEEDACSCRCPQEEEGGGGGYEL

T2: recombinant mouse 4-1 BB Ligand protein (R&D Systems, Cat. No. 1246-4L) (mouse, UniProt P41274 104-309)
T2 construct: Bought reagent; also called commercially available recombinant mouse 4-1 BB Ligand protein
T2 sequence (looked up): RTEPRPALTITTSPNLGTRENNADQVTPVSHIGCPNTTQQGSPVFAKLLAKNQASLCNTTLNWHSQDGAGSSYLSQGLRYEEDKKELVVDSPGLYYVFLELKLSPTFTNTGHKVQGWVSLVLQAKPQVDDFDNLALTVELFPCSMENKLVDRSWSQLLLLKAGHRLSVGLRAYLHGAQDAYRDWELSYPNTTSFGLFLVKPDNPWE

B1: hTGFBR2-Fc-NKG2A chimeric protein (Fc fusion)
chain: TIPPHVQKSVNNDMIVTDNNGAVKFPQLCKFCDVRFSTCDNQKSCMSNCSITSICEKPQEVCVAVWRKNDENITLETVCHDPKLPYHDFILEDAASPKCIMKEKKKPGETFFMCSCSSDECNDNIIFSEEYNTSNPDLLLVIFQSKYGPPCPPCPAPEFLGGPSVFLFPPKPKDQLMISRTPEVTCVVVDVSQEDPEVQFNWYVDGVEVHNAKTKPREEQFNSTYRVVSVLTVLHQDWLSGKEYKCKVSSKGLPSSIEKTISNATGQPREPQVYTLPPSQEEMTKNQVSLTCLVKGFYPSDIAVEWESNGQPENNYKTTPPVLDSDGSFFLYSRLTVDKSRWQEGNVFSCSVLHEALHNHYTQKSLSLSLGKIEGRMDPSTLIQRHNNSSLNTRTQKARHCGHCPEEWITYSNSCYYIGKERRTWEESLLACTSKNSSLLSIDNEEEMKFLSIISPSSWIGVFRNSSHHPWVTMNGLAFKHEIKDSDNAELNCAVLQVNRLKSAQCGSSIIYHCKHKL
notes: also called human TGFBR2-Fc-NKG2A
B2: mTGFBR2-Fc-4-1BBL chimeric protein (Fc fusion, mouse, UniProt Q62312 24-166, looked up)
chain: IPPHVPKSVNSDVMASDNGGAVKLPQLCKFCDVRLSTCDNQKSCMSNCSITAICEKPHEVCVAVWRKNDKNITLETVCHDPKLTYHGFTLEDAASPKCVMKEKKRAGETFFMCACNMEECNDYIIFSEEYTTSSPDLLLVIIQVPRDCGCKPCICTVPEVSSVFIFPPKPKDVLTITLTPKVTCVVVDISKDDPEVQFSWFVDDVEVHTAQTQPREEQFNSTFRSVSELPIMHQDWLNGKEFKCRVNSAAFPAPIEKTISKTKGRPKAPQVYTIPPPKEQMAKDKVSLTCMITDFFPEDITVEWQWNGQPAENYKNTQPIMNTNGSYFVYSKLNVQKSNWEAGNTFTCSVLHEGLHNHHTEKSLSHSPGKRTEPRPALTITTSPNLGTRENNADQVTPVSHIGCPNTTQQGSPVFAKLLAKNQASLCNTTLNWHSQDGAGSSYLSQGLRYEEDKKELVVDSPGLYYVFLELKLSPTFTNTGHKVQGWVSLVLQAKPQVDDFDNLALTVELFPCSMENKLVDRSWSQLLLLKAGHRLSVGLRAYLHGAQDAYRDWELSYPNTTSFGLFLVKPDNPWE
notes: extracellular domain;domain: hinge-CH2-CH3 Fc domain; also called murine TGFBR2-Fc-4-1BBL; TGFBR2-Fc-CD137L
B3: recombinant 4-1BB-His protein (receptor, mouse, UniProt P20334 24-187, looked up)
chain: VQNSCDNCQPGTFCRKYNPVCKSCPPSTFSSIGGQPNCNICRVCAGYFRFKKFCSSTHNAECECIEGFHCLGPQCTRCEKDCRPGQELTKQGCKTCSLGTFNDQNGTGVCRPWTNCSLDGRSVLKTGTTEKDVVCGPPVVSFSPSTTISVTPEGGPGGHSLQVL
notes: also called m4-1BB-His; CD137; not shown: His tag

How the values were obtained:
[1] = molecular target: T3, anti-human IgG antibody; assay: ELISA: plate coated with Anti-Human IgG (H+L) Jax# 109-005-088, titrated protein captured, detected with HRP Goat anti-human FCgamma Jax# 109-035-008
T3 construct: also called anti-human Fc antibody
Protocol: To understand whether the human Fc linkers from the native chimeric proteins can be accessed by anti-human antibodies, ELISA-based assays were performed. For these assays, an anti-human IgG antibody was coated on plates and increasing amounts of the hCD86-Fc-NKG2A, hTGFBR2-Fc-NKG2A, and mCD80-Fc-NKG2a chimeric proteins, and a human IgG antibody were added to the plates for capture by the plate-bound anti-human antibody. The human IgG antibody and the hCD86-Fc-NKG2A chimeric protein were used as a positive control. The mCD80-Fc-NKG2a chimeric protein was included as a negative control as containing a non-human Fc domain. The protein bound to the anti-human IgG antibody was detected using an anti-human Fcgamma HRP.

[2] = molecular target: T1, m4-1BB expressed on CHO-K1 cells …; assay: flow cytometry on CHO-K1/m4-1BB+ (C20) cells, detected with Anti-mFc-APC (Jax 1:50)
Protocol: To understand whether the 4-1BBL part of the mTGFBR2-Fc-4-1BBL chimeric protein can specifically bind cells expressing 4-1BB, cells expressing 4-1 BB were generated. Specifically, the CHO-K1 cells expressing 4-1 BB were generated using standard techniques. Clone 20, a positive clone, called CHO-K1/m4-1BB+ (C20), was used for further studies. To determine whether the mTGFBR2-Fc-4-1BBL chimeric protein can specifically bind the CHO-K1/4-1BB cells, a flow-cytometry-based assay was carried out. CHO-K1/m4-1BB+(C20) and WT CHO-K1 cells were stained with increasing concentrations of the TGFBR2-Fc-4-1BBL chimeric protein, or positive control protein comprising Fc-4-1BBL (Control-Fc-4-1BBL) and analyzed by flow cytometry. Unstained CHO-K1/m4-1BB+ (C20) and WT CHO-K1 cells or CHO-K1/m4-1BB+ (C20) and WT CHO-K1 cells stained without the TGFBR2-Fc-4-1BBL chimeric protein, or positive control protein comprising Fc-4-1BBL (Control-Fc-4-1BBL) were used as control.

[3] = molecular target: B3; assay: ELISA: plate coated with 41BB-His (5ug/ml, Acro 41B-M52H7), titrated protein captured, detected with α-mFc-HRP (1:10k, Jax 115-036-003)
Protocol: The TGFBR2-based chimeric proteins harbor type II transmembrane protein domains at or near the C-terminus. To understand whether the type II transmembrane protein domains from the native chimeric proteins can bind their natural ligands/receptors, ELISA-based assays were performed. TGFBR2-Fc-4-1BBL comprises 4-1BB ligand (4-1BBL or TNFSF9) as the type II membrane protein located at or near the C-terminus. 4-1BB (CD137, TNFRSF9) is the natural receptor/ligand of 4-1BBL. To understand whether the type II transmembrane protein domain part of the native TGFBR2-Fc-4-1BBL chimeric protein can bind 4-1BB, ELISA-based assays were performed. Recombinant 4-1BB-His protein was coated on plates. Increasing amounts of the TGFBR2-Fc-4-1BBL chimeric protein, or a positive control protein comprising Fc-4-1BBL (Control-Fc-4-1BBL) were added for capture by the plate-bound 4-1BB-His protein. Binding was detected using an anti mFc-HRP antibody. […] Therefore, the type II transmembrane protein domain of the TGFBR2-Fc-4-1BBL and Control-Fc-4-1BBL chimeric proteins bind to the natural ligand/receptor of the 4-1BBL.

[4] = molecular target: T2, recombinant mouse 4-1 BB Ligand protein …; assay: Octet (4-1BB Arc Octet): 41BB His (5ug/ml, Acro 41B-M52H7) on the tip, All Molecules at 30ug/ml; rm41BBL R&D 1246-4L
Protocol: To study the binding kinetics of type II transmembrane protein domain and TGFBR2 parts of the illustrative TGFBR2-based chimeric proteins, binding assays were performed using the Octet system (ForteBio). Binding of the TGFBR2-Fc-4-1BBL chimeric protein to recombinant 4-1BB was analyzed. Briefly, recombinant 4-1BB-His protein was immobilized and detected using the mTGFBR2-Fc-4-1BBL chimeric protein, a positive control protein comprising Fc-4-1BBL (Control-Fc-4-1BBL) or commercially available recombinant mouse 4-1 BB Ligand protein (R&D Systems, Cat. No. 1246-4L). The binding response of the mTGFBR2-Fc-4-1BBL chimeric protein to 4-1BB-His protein was measured and plotted in real time on a sensorgram trace.

B1
EC50 (read off the curve) [1]: ~10 µg/mL

B2
EC50 (read off the curve) [2]: ~0.08 µg/mL
EC50 (read off the curve) [3]: ~0.07 µg/mL

B3
binding result [4]: binds
